Results reported in publication PMC4601012 (Scientific Reports, 2015).

What was measured:
[1] = biological target: T1, CA/09 H1 HA: hemagglutinin of A/California/7/2009 (H1N1) (Influenza A virus A/California/07/2009 …, UniProt C3W5X2, strain); experiment: ELISA; conditions: one partner purified
T1 construct: source: insect cells, expressed and purified (Supplementary Methods)

[2] = biological target: T1, CA/09 H1 HA: hemagglutinin of …; experiment: SPR; conditions: both partners purified
[3] = biological target: BS/07 H1 HA: hemagglutinin of A/Brisbane/59/2007(H1N1) (Influenza A virus A/Brisbane/59/2007 …, strain); experiment: ELISA

| Binder | normalized binding affinity (relative to F10 scFv) [1] | Kd [2] | koff [2] | kon [2] | binding result ([3]; both partners purified) | binding result ([3]; one partner purified) |
| --- | --- | --- | --- | --- | --- | --- |
| H123#437 scFv (scFv, V domains shown, source: E. coli ER2738, phage-free soluble scFv in filtered culture supernatant; not shown: E-tag, C-terminal, kept) VH: QVQLVQSGAEVKKPGSSVKVSCTSSEFMFPAFAISWVRQAPGQGLEWLGGISPMFDHPNYAQKFQGRVTITADQSTRTAYMDLRSLRSEDTAVYYCARSPTYLPSGVFDHWGQGTLVTVSS VL: QPGLTQPPSVSKGLRQTATLTCTGNSNNVGNQGAAWLQQHQGHPPKLLSYRNNDRPSGISERFSASRSGNTASLTITGLQPEDEADYYCSTWDSSLSAVVFGGGTKLTVL | 5.2 |  |  |  |  |  |
| H123#437 IgG (antibody, V domains shown) VH: QVQLVQSGAEVKKPGSSVKVSCTSSEFMFPAFAISWVRQAPGQGLEWLGGISPMFDHPNYAQKFQGRVTITADQSTRTAYMDLRSLRSEDTAVYYCARSPTYLPSGVFDHWGQGTLVTVSS VL: QPGLTQPPSVSKGLRQTATLTCTGNSNNVGNQGAAWLQQHQGHPPKLLSYRNNDRPSGISERFSASRSGNTASLTITGLQPEDEADYYCSTWDSSLSAVVFGGGTKLTVL |  | 0.091 nM | 3.52e-05 s⁻¹ | 386000 M⁻¹ s⁻¹ | binds |  |
| F10 IgG (antibody, V domains shown) VH: QVQLVQSGAEVKKPGSSVKVSCTSSEVTFSSFAISWVRQAPGQGLEWLGGISPMFGTPNYAQKFQGRVTITADQSTRTAYMDLRSLRSEDTAVYYCARSPSYICSGGTCVFDHWGQGTLVTVSS VL: QPGLTQPPSVSKGLRQTATLTCTGNSNNVGNQGAAWLQQHQGHPPKLLSYRNNDRPSGISERFSASRSGNTASLTITGLQPEDEADYYCSTWDSSLSAVVFGGGTKLTVL |  | 0.046 nM | 1.11e-05 s⁻¹ | 240000 M⁻¹ s⁻¹ | binds |  |
| F10 scFv (scFv, V domains shown, not shown: E-tag, C-terminal, kept) VH: QVQLVQSGAEVKKPGSSVKVSCTSSEVTFSSFAISWVRQAPGQGLEWLGGISPMFGTPNYAQKFQGRVTITADQSTRTAYMDLRSLRSEDTAVYYCARSPSYICSGGTCVFDHWGQGTLVTVSS VL: QPGLTQPPSVSKGLRQTATLTCTGNSNNVGNQGAAWLQQHQGHPPKLLSYRNNDRPSGISERFSASRSGNTASLTITGLQPEDEADYYCSTWDSSLSAVVFGGGTKLTVL |  |  |  |  |  | binds |
